In general, Kd refers to the concentration at which binding is half-saturated.

Data on 3 molecules can be found in patent US20230091175A1.

Substitutions are numbered along the chain they refer to.

The labels stand for the following.
B1: mouse anti-human IL-12 antibody (clone 22-4), original (unmodified) (Fab, V domains shown, not shown: a dimerising Fc or GST)
VH: EVQLQESGPSLVKPSQTLSLTCSVTGDSITSGYWNWIRKFPGNKLEYMGYISYSGSTYYNPSLKSRISITRDTSKNQNYLQLNSVTTEDTATYYCARRDTTVVVPYYFDYWGQGTTLTVSS
VL: DIVMTQSHKFMSTSVGDRVSITCKASQDVGTAVAWYQQKPGQSPKLLIYWASTRHTGVPGRFTGSGSGTDFTLTINNVQSEDLADYFCQQYSSYPLTFGAGTKLELKR
B2: R4 variant of anti-IL-12 antibody (clone 22-4) (Fab, V domains shown, not shown: a dimerising Fc or GST)
VH: B1 VH
VL: B1 VL with T63R, S65R, S67R, D70R
B3: R3 variant of anti-IL-12 antibody (clone 22-4) (Fab, V domains shown, not shown: a dimerising Fc or GST)
VH: B1 VH
VL: B1 VL with T63R, S65R, S67R

human IL 12 protein (Recombinant His, C-terminus) (aa23-328) (LS-G134297-50: LSBio, Inc.) (human), sequence (P29460 23-328, form in doubt): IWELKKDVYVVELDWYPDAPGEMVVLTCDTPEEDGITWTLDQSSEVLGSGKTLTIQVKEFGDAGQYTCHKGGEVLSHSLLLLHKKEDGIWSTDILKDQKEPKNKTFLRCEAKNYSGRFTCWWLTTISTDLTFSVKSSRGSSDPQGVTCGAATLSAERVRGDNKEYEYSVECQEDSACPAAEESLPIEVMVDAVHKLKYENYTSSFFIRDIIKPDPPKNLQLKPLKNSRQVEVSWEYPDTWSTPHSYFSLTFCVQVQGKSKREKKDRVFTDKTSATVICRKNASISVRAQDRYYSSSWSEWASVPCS

One assay has as its target human IL 12 protein (Recombinant His, C-terminus) (aa23-328) (LS-G134297-50: LSBio, Inc.) (human) (UniProt P29460). The assay can be described thus: SPR (Biacore 8K), antigen immobilized on CM4 chip, antibody as analyte. On the technique in general: In SPR one partner is held on a chip, and binding of the other changes the refractive index at the surface.
Take B1: the Kd is 10.3 nM.
Same read-out and setting: the figure for B2 is 0.245 nM; for B3 it is 0.497 nM.

Another assay has the same target. The assay can be described thus: SPR (Biacore 8K); affinity ratio with the original antibody as 1.0.
Regarding B1, the KD ratio is 1.
On to B2, for which the KD ratio was found to be 42.2.
For the molecule B3, the KD ratio came to 20.8.
